Series [1] concerns the target T1, PKA (Bos taurus, UniProt P00517). Description: in vitro phosphorylation of the synthetic peptides by PKA. Format: biochemical. Conditions: not shown.
The target of another series is T2, GPBP (Homo sapiens, UniProt Q9Y5P4).
T2 construct: made in house; host or cells: Pichia pastoris GS115
T2 sequence (Q9Y5P4 1-624): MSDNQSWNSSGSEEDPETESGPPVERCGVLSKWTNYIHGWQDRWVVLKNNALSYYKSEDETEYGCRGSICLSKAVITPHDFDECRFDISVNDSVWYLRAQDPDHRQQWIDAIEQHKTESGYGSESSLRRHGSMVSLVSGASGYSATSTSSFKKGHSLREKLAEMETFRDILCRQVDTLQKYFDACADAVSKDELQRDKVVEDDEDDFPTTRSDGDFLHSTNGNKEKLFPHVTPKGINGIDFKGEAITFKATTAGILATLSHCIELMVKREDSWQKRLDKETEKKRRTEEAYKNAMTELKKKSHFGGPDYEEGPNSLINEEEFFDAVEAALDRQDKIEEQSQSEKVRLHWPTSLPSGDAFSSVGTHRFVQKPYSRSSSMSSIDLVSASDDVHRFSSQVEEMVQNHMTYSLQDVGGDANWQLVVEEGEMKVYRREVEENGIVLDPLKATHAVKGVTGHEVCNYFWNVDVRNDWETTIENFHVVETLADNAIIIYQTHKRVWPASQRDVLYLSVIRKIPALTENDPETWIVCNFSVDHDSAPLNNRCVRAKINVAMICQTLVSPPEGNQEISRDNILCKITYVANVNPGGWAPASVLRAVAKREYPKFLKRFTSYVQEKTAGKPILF
Description: in vitro GPBP autophosphorylation in the presence of GPΔIII-derived peptide. The class given is biochemical. Conditions: about 200 ng rGPBP, 150 μM ATP, 5 nmol peptide. The procedure:
FIG. 20. Regulation of the GPBP by the C terminal region of GPΔIII. About 200 ng of RGPBP were in vitro phosphorylated with 150 μM ATP in the absence (lane 1) or in the presence of 5 nmol of GPΔIII-derived peptide synthesized either using Boc-(lane 2) or Fmoc-(lane 3) chemistry. The reaction mixtures were subjected to SDS-PAGE, transferred to PVDF and autoradiographed to assess autophosphorylation, and subsequently blotted with anti-FLAG monoclonal antibodies (Sigma) to determine the amount of recombinant material present (Western).
In vitro phosphorylation assays-About 200 ng of rGPBP were incubated overnight at 30° C. in 25 mM P-glycerolphosphate (pH 7.0), 0.5 mM EDTA, 0.5 mM EGTA, 8 mM MgCl2, 5 mM MnCl2, 1 mM DTT and 0.132 μM γ-^32P-ATP, in the presence or absence of 0.5-1 μg of protein substrates or 10 nmoles of synthetic peptides, in a total volume of 50 μl.
(§1) Phosphorylation studies. Phosphorylation studies were essentially done as described above (see also 3 and 11). In some experiments, the substrates were in-blot renatured and then, phosphorylated for 30 min at room temperature by overlaying 100 μl of phosphorylation buffer containing 0.5 μg of RGPBP. Digestion with V8 endopeptidase and immunoprecipitation were performed as described in (3).

Series [2] deals with T1, PKA. Description: PKA phosphorylation of native GP antigen (α3(IV)NC1 monomer or hexamer) in the presence of C-terminal peptides. Conditions: for induction of GP antigen phosphorylation by PKA (22 kDa conformer of α3(IV)NC1): 0.1 μM ATP, 10 nmol peptide. The class given is biochemical. The procedure: FIG. 16. Phosphorylation of GP alternative splicing products by PKA. In left panel, equimolecular amounts of rGP (lanes 1), rGPΔV (lanes 2), rGPΔIII (lanes 3) or rGPΔIII/IV/V (lanes 4), equivalent to 500 ng of the GP were phosphorylated at the indicated ATP concentrations. One-fifth of the total phosphorylation reaction mixture was separated by gel electrophoresis and transferred to PVDF, autoradiographed (shown) and the proteins blotted with M3/1, a specific monoclonal antibody recognizing all four species (shown) or using antibodies specific for each individual C-terminal region (not shown). […] Right panel: purified α3(IV)NC1 domain or hexamer was phosphorylated with PKA and 0.1 μM ATP in the absence (lanes 1) or in the presence of 10 nmol of peptides representing the C-terminal region of either GPΔIII (lanes 2) or GPΔIII/IV/V (lanes 3). Where indicated the phosphorylation mixtures of purified α3(IV)NC1 domain were V8 digested and immunoprecipitated with antibodies specific for the N terminus of the human α3(IV)NC1 domain (3). Bars and numbers indicate the position and sizes (kDa) of the molecular weight markers.
as §1
Regulation of the phosphorylation of the human GP antigen by alternative splicing. We produced bacterial recombinant proteins representing the primary antigen (GP) or the individual alternative products GPΔV (SEQ ID NO:46), GPΔIII (SEQ ID NO:48) and GPΔIII/IV/V (SEQ ID NO:50), and we tested their ability to be phosphorylated by PKA (FIG. 16, left panel). […] Accordingly, the differences observed in phosphorylation for the full polypeptides also existed among the individual N-terminal regions, as determined after specific V8 digestion and immunoprecipitation (not shown). […]

Series [3] deals with T3, native bovine α3(IV)NC1 domain (bovine GP antigen), Q28084.
T3 chain: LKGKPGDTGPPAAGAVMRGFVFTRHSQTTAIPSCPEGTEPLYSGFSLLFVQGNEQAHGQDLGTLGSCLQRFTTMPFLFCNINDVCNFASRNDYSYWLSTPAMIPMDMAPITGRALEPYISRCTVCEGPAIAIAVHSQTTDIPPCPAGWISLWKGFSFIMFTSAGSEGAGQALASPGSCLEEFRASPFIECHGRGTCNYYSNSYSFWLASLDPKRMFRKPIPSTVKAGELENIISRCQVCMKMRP

For another series, the target named is T4, GPpep1.
T4 chain: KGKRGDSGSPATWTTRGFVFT

The target in series [4] is T5, prokaryotic human recombinant α3(IV)NC1.
T5 chain: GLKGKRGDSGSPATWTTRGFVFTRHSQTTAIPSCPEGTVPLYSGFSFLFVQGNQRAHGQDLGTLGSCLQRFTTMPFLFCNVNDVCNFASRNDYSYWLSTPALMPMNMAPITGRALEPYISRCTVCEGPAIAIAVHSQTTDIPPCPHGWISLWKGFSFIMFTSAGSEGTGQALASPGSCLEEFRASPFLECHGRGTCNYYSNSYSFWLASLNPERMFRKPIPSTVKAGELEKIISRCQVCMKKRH

Series [5] concerns the molecule itself. The series can be described thus: gel filtration HPLC and analytical centrifugation. Here is the method: FIG. 11. rGPBP and rGPBPΔ26 form very active high molecular weight aggregates. About 300 μg of rGPBP (A) or rGPBPΔ26 (B) were subjected to gel filtration HPLC as described under Material and Methods. Vertical arrowheads and numbers respectively indicate the elution profile and molecular mass (kDa) of the molecular weight standards used. Larger aggregates eluted in the void volume (I), and the bulk of the material present in the samples eluted in the fractionation range of the column as a second peak between the 669 and 158 kDa markers (II). Fifteen microliters of the indicated minute fractions were subjected to SDS-PAGE and Coomasie blue staining. Five microliters of the same fractions were in vitro phosphorylated as described in Materials and Methods, and the reaction stopped by boiling in SDS sample buffer. The fractions were loaded onto SDS-PAGE, transferred to PVDF and autoradiographed for 1 or 2 hours using Kodak X-Omat films and blotted using anti-FLAG monoclonal antibodies (Sigma).
Northern hybridization studies Pre-made human multiple-tissue and tumor cell-line Northern Blots (CLONTECH) were probed with a cDNA containing the 78-bp exon present only in GPBP or with a cDNA representing both isoforms. […] The material was eluted from the column at 0.5 ml/min, monitored at 220 nm and minute fractions collected. […]

As for “QRAHGQDLDALFVKVLRSP [Fmoc-based peptide]”, the “in vitro substrate of PKA” value with PKA [1] was “not”. For the same molecule, in the series with GPBP, the “effect on GPBP autophosphorylation” value is “inhibited GPBP autophosphorylation”.

Take QRAHGQDLDALFVKVLRSP [Boc-based peptide]: in the series with PKA [1], the “in vitro substrate of PKA” value is given as “in vitro substrates of PKA”. In addition, the “effect on GPBP autophosphorylation” value with GPBP was “positively influenced GPBP autophosphorylation”. The “retention of ability to induce PKA on storage” value with PKA [2] (long storage at low temperatures) was “loses its ability to induce PKA”.

Regarding “QRAHGQDLDALFVKVLRSP [SEQ ID NO: 43, synthetic peptide representing the C-terminal region of GPΔIII]”, the “induction of GP antigen phosphorylation by PKA (22 kDa conformer of α3(IV)NC1)” value in the series with PKA [2] is on record as “induced the phosphorylation of a single polypeptide”.

Regarding “QRAHGQDLESLFHQL [SEQ ID NO:44, synthetic peptide representing the C-terminal region of GPΔIII/IV/V]”, the “induction of GP antigen phosphorylation by PKA (22 kDa conformer of α3(IV)NC1)” value with PKA [2] is given as “induced the phosphorylation of a single polypeptide”.

B1: FLAG-tagged recombinant GPBPΔ26 (rGPBPΔ26) (enzyme)
chain: DYKDDDDKMSDNQSWNSSGSEEDPETESGPPVERCGVLSKWTNYIHGWQDRWVVLKNNALSYYKSEDETEYGCRGSICLSKAVITPHDFDECRFDISVNDSVWYLRAQDPDHRQQWIDAIEQHKTESGYGSESSLRRHGSMVSLVSGASGYSATSTSSFKKGHSLREKLAEMETFRDILCRQVDTLQKYFDACADAVSKDELQRDKVVEDDEDDFPTTRSDGDFLHSTNGNKEKLFPHVTPKGINGIDFKGEAITFKATTAGILATLSHCIELMVKREDSWQKRLDKETEKKRRTEEAYKNAMTELKKKSHFGGPDYEEGPNSLINEEEFFDAVEAALDRQDKIEEQSQSEKVRLHWPTSLPSGDAFSSVGTHRFVQKVEEMVQNHMTYSLQDVGGDANWQLVVEEGEMKVYRREVEENGIVLDPLKATHAVKGVTGHEVCNYFWNVDVRNDWETTIENFHVVETLADNAIIIYQTHKRVWPASQRDVLYLSVIRKIPALTENDPETWIVCNFSVDHDSAPLNNRCVRAKINVAMICQTLVSPPEGNQEISRDNILCKITYVANVNPGGWAPASVLRAVAKREYPKFLKRFTSYVQEKTAGKPILF
notes: From plasmid pHIL-FLAG-n4′Δ26, expressed in Pichia pastoris
With B1, in series [3], the “conformers and oligomers after DTT consumption, Western blot” value was “Essentially the same results were obtained when blotting the samples that contained GPBPΔ26”. Besides, the “trans-phosphorylation activity with 5 nmol GPpep1” value in the series with GPpep1 was “the reduced in-solution auto- and trans-phosphorylation activities displayed by rGPBPΔ26”. Moreover, in series [4], the “disruption of disulfide-based aggregates, Western blot” value is “GPBP and, to a lesser extent GPBPΔ26 disrupted disulfide-based high molecular weight aggregates characteristic of recombinant material representing human α3(IV)NC1 produced in bacteria”. For the same molecule, in series [5], the binding result was “binds”.

B2: FLAG-tagged recombinant GPBP (rGPBP) (enzyme)
chain: DYKDDDDKMSDNQSWNSSGSEEDPETESGPPVERCGVLSKWTNYIHGWQDRWVVLKNNALSYYKSEDETEYGCRGSICLSKAVITPHDFDECRFDISVNDSVWYLRAQDPDHRQQWIDAIEQHKTESGYGSESSLRRHGSMVSLVSGASGYSATSTSSFKKGHSLREKLAEMETFRDILCRQVDTLQKYFDACADAVSKDELQRDKVVEDDEDDFPTTRSDGDFLHSTNGNKEKLFPHVTPKGINGIDFKGEAITFKATTAGILATLSHCIELMVKREDSWQKRLDKETEKKRRTEEAYKNAMTELKKKSHFGGPDYEEGPNSLINEEEFFDAVEAALDRQDKIEEQSQSEKVRLHWPTSLPSGDAFSSVGTHRFVQKPYSRSSSMSSIDLVSASDDVHRFSSQVEEMVQNHMTYSLQDVGGDANWQLVVEEGEMKVYRREVEENGIVLDPLKATHAVKGVTGHEVCNYFWNVDVRNDWETTIENFHVVETLADNAIIIYQTHKRVWPASQRDVLYLSVIRKIPALTENDPETWIVCNFSVDHDSAPLNNRCVRAKINVAMICQTLVSPPEGNQEISRDNILCKITYVANVNPGGWAPASVLRAVAKREYPKFLKRFTSYVQEKTAGKPILF
modifications: phosphoserine, phosphothreonine and phosphotyrosine present, sites not given
notes: Made in Pichia pastoris or 293 cells; also called FLAG-n4′
In the case of B2, the binding result in series [5] is “binds”.

The values above are taken from patent publication US6881547B1, “Methods and reagents for treating autoimmune disorders” (priority 2001, dated 2005).
